Patent US12162911B2, “Pulmonary administration of pyocins for treating bacterial respiratory infections” (priority 2014, dated 2024)
Entries after “also recorded” stand apart in the source; their conditions may differ.

How the values were obtained:
P. aeruginosa P8 = assay: Mouse model of acute lung infection, P. aeruginosa P8; type: in vivo, Pseudomonas aeruginosa
Experimental: Study design. […] For all experiments 6 week-old, female, murine pathogen free C57/BL6 mice weighing 15-21 g were used (Charles Rivers Laboratories, UK). All mice received food and water ad libitum and were housed in groups during the experiments. Power calculations were used to predetermine sample size (n=6, for all treatment experiments). Mice were culled when required as determined by a scoring system or culled at the pre-determined 24 h time point. All mice, including outliers were included in the statistical analysis. Experiments were either carried out once only or repeated once (defined for each experiment).
(§1) Model of acute lung infection. Female C57/BL6 mice were inoculated intranasally with 25 μl of bacterial culture containing approximately 10^7 CFU of the selected P. aeruginosa strain^36. Antibiotic treatments were administered at either 6 h pre-infection or 1 h post-infection and were administered only once. Pyocins or tobramycin dissolved in PBS were administered via intranasal administration as described above. Two different end-points were used in these experiments. In order to determine a reduction in the bacterial load of the lungs compared to the untreated controls, all mice in the experiment were culled by carbon dioxide asphyxiation at the same time; 4-6 h post infection. To determine if mice could survive infection after pyocin or tobramycin treatment, mice were monitored closely, culled by carbon dioxide asphyxiation when required as determined by a scoring system or culled at the pre-determined 24 h time point. Uninfected mice, treated with pyocins, were used as controls in the first series of experiments in order to ensure no adverse effects from pyocin treatment. These controls were stopped in later experiments in order to reduce the number of animals used, once it was clear that the pyocins were not harmful. For CFU determination, lungs were removed aseptically and kept on ice in 750 μl of PBS until homogenised. Serial 10-fold dilutions of the homogenised lung were plated on Pseudomonas selective agar (20 g peptone, 1.5 g K2HPO4, 1.5 g MgSO4·7H2O, 10 ml glycerol, 15 g agar, 0.025 g Irgasan per litre) and incubated at 37° C. for 24 h and then room temperature for 24 h before the colonies were counted.

P. aeruginosa P17 = assay: Mouse model of acute lung infection, P. aeruginosa P17; type: in vivo, Pseudomonas aeruginosa
Experimental: as §1
(§2) Since strains of P. aeruginosa are phenotypically diverse, we tested the efficacy of the pyocins against three additional isolates: P. aeruginosa P17 and P. aeruginosa P5 (mucoid), both from cystic fibrosis patients and P. aeruginosa E2, an environmental isolate. Pyocin S2 was not active against P. aeruginosa P5 or P. aeruginosa E2 in vitro therefore was not used to treat these strains in vivo and similarly pyocin L1 was not used against P. aeruginosa P17. […] Lung homogenates from P. aeruginosa E2-infected AP41-treated mice contained high levels of viable bacteria, reduced only 10-fold relative to control mice (Table 1). […] Thus, pyocins show strong efficacy against diverse strains of P. aeruginosa with pyocin S5 treatment displaying the largest effect on reducing bacterial load.

P. aeruginosa E2 = assay: Mouse model of acute lung infection, P. aeruginosa E2; type: in vivo, Pseudomonas aeruginosa
Experimental: as §1, §2

P8AP41T = assay: Pyocin sensitivity in vitro (spot tests) of strain P8AP41T; type: cell-based, Pseudomonas aeruginosa; settings: spot tests, FIG. 3a
Experimental: Pyocin sensitivity assays: overlay spot plate method. Soft agar overlay spot plates were performed using the method of ^35. 150 μl of test strain culture at OD600 nm=0.6 was added to 6 ml of 0.8% soft agar and poured over an LB agar plate. 5 μl of bacteriocin, lung homogenate or blood at varying concentrations was spotted onto the plates and incubated for 24 h at 37° C.
In order to determine if pyocin tolerance or resistance was acquired upon pyocin treatment in vivo, viable bacteria recovered from mice that survived infection to the 24 h end-point, in all experiments discussed in this work, were tested for pyocin susceptibility. From these experiments no pyocin resistant colonies were isolated. […] Importantly, sensitivity to pyocins S5 and L1 were unaffected in vitro in this pyocin AP41-tolerant strain (FIG. 3a) and this was also shown to be the case in vivo when mice were infected with P8AP41T.

[1] = Pyocin S5-specific antibody titers by indirect ELISA
Experimental: Determination of pyocin S5-specific antibody titers by indirect ELISA. For analysis of IgG and IgA responses, blood was obtained by cardiac puncture immediately after carbon dioxide asphyxiation. Serum was obtained by centrifugation of samples at 13,500 g for 10 min followed by collection of the supernatant. Serum was stored at −80° C. Greiner 96-well plates (MaxiSorp) were coated with purified recombinant pyocin S5 (7.5 μg ml^−1, 50 μl/well) protein in PBS overnight at 4° C. The plates were washed three times with phosphate buffered saline+0.05% TWEEN20 (PBST) and then blocked for 1 h at 37° C. with 150 μl of blocking buffer (1% bovine serum albumin (BSA) in PBS). After washing, five-fold serially diluted samples were added, starting at a dilution of 1/50 in blocking buffer, and incubated for 2 h at 37° C. Serum from mice given pyocin S5+Freunds complete/incomplete subcutaneously three times over four weeks was used as a positive control and uncoated wells were used as negative controls. Serum from individual mice were analysed and replicate samples were carried out on separate days. After washing with PBST, 50 μl of anti-mouse IgG (Fc specific)-peroxidase antibody ((1/1000 dilution) Sigma, UK) or anti-mouse IgA (α-chain specific)-peroxidase antibody ((1/250 dilution) Sigma, UK) in PBST/0.1% BSA was added and plates were incubated for 1 h at 37° C. Plates were developed using […] OPD (o-Phenylenediamine dihydrochloride) tablets (Sigma, UK) and reactions were stopped using 3 M HCl. Optical densities (ODs) were read at 450 nm using a FLUOstar OPTIMA plate reader (BMG labtech, Germany).

[2] = system: collection of diverse environmental and clinical isolates; assay: Activity against a collection of diverse environmental and clinical isolates; type: cell-based, Pseudomonas aeruginosa
[3] = survival to 24 h, treatment 1 h post-infection
[4] = mice repeatedly exposed I.N., 75 μg/dose three times (FIG. 8b)
[5] = mice repeatedly exposed I.P., 75 μg/dose three times (FIG. 8d)

B1: Pyocin S5: S-type pyocin, SEQ ID NO: 13; binds FptA, pore-forming effector (protein, listed as Pseudomonas aeruginosa)
chain: MSNDNEVPGSMVIVAQGPDDQYAYEVPPIDSAAVAGNMFGDLIQREIYLQKNIYYPVRSIFEQGTKEKKEINKKVSDQVDGLLKQITQGKREATRQERVDVMSAVLHKMESDLEGYKKTFTKGPFIDYEKQSSLSIYEAWVKIWEKNSWEERKKYPFQQLVRDELERAVAYYKQDSLSEAVKVLRQELNKQKALKEKEDLSQLERDYRTRKANLEMKVQSELDQAGSALPPLVSPTPEQWLERATRLVTQAIADKKQLQTTNNTLIKNSPTPLEKQKAIYNGELLVDEIASLQARLVKLNAETTRRRTEAERKAAEEQALQDAIKFTADFYKEVTEKFGARTSEMARQLAEGARGKNIRSSAEAIKSFEKHKDALNKKLSLKDRQAIAKAFDSLDKQMMAKSLEKFSKGFGVVGKAIDAASLYQEFKISTETGDWKPFFVKIETLAAGAAASWLVGIAFATATATPIGILGFALVMAVTGAMIDEDLLEKANNLVISI
survival (P. aeruginosa P8; 30 ng ml^−1, 1 h post-infection (FIG. 2b)): survived to 24 h
bacterial counts compared to the PBS controls (P. aeruginosa P8; 30 ng ml^−1, 24 h post-infection (FIG. 2b)): significantly reduced the bacterial counts
bacteria recovered from lung (P. aeruginosa P8; 3 mg ml^−1 1 h post-infection, 24 h post-infection, six mice (FIG. 1d)): no bacteria recovered; also recorded: No colonies were recovered
treated mice from which viable bacteria were recovered (P. aeruginosa P8; 3 mg ml^−1 intranasal 1 h post-infection, culled 4.5 h post-infection (FIG. 1c)): three out of six
viable bacteria recovered from lung (P. aeruginosa P8; 3 mg ml^−1 intranasal 6 h pre-infection, 24 h post-infection (FIG. 1b)): no viable bacteria were recovered; also recorded: No colonies were recovered
viable bacteria recovered from lung homogenates (P. aeruginosa P8; C57/BL6 mice, 3 mg ml^−1 intranasal 6 h pre-infection, culled 4 h post-infection (FIG. 1a)): no viable bacteria were recovered; also recorded: No colonies were recovered
concentration at which effective in this model (P. aeruginosa P8; in vivo): lower than 1 nM
Lowest active concentration tested (P. aeruginosa P8; lowest concentration tested with which the treated mice survived to 24 h): 30 ng/mL
potency relative to tobramycin (P. aeruginosa P8; minimum effective concentrations compared): at least 100 fold
Corresponding molarity (P. aeruginosa P8; molarity of lowest active concentration tested): 535 pM
bacterial load compared with tobramycin (P. aeruginosa P8; pyocin S5 0.3 or 3 mg ml^−1 versus tobramycin 30 or 3 mg ml^−1, 1 h post-infection, culled 4.5 h (FIG. 2a)): reduced the bacterial load to a greater extent than tobramycin
bacterial counts compared with tobramycin (P. aeruginosa P8; repeat of FIG. 2a experiment (FIG. 6)): reduced bacterial counts to a greater extent than tobramycin
lowest concentration at which effective (lower limit) (P. aeruginosa P8; [3]): > 300 pg/mL
lowest concentration at which effective (upper limit) (P. aeruginosa P8; [3]): ≤ 30 ng/mL
survival / protection (P. aeruginosa P17; pyocin 3 mg ml^−1, endpoint 24 h, infected controls culled at 4 h): survived until the 24 h endpoint
bacterial count in lung, P17 (P. aeruginosa P17; pyocin 3 mg ml^−1, treated mice survived to 24 h, no treatment 4.4 × 10^5 CFU/lung): No colonies
survival / protection (P. aeruginosa E2; pyocin 3 mg ml^−1, endpoint 24 h, infected controls culled at 5.5 h): survived until the 24 h endpoint
bacterial count in lung, E2 (P. aeruginosa E2; pyocin 3 mg ml^−1, treated mice survived to 24 h, no treatment 1.5 × 10^5 CFU/lung): No colonies
sensitivity of the pyocin AP41-tolerant strain in vitro (P8AP41T): unaffected
pyocin-S5 specific IgA in serum [1, 4]: no IgA antibodies detected
pyocin-S5 specific IgG, fold less than the Freunds complete/incomplete control group [1, 4]: 10 fold
pyocin S5-specific IgA in serum [1, 5]: no pyocin S5-specific IgA was detected
pyocin S5-specific IgG, fold less than the Freunds complete/incomplete control group [1, 5]: 1000 fold
strains against which active [2]: 87%
